Target: T1, YgiT (E. coli, UniProt Q46864 1-131)
T1 construct: YgiT with no tag named, co-expressed with H-MqsR from pET-MqsRYgiT (the operon cloned in pET28a) or induced from pBAD-YgiT in cells; also called YgiT of the H-MqsRYgiT complex; YgiT expressed from pBAD-YgiT
T1 sequence: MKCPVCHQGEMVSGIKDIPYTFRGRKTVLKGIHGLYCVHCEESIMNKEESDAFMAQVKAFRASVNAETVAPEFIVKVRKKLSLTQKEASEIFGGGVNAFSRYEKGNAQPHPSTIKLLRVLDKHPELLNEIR
Assay: co-expression and co-purification on Ni-NTA agarose through the tag of H-MqsR

B1: N-terminal histidine-tagged MqsR (enzyme)
chain: MEKRTPHTRLSQVKKLVNAGQVRTTRSALLNADELGLDFDGMCNVIIGLSESDFYKSMTTYSDHTIWQDVYRPRLVTGQVYLKITVIHDVLIVSFKEK
notes: also called H-MqsR; His-MqsR; not shown: N-terminal histidine tag from pET28a
- binding result: binds

Reference: patent publication US20110217282A1 (UNIVERSITY OF MEDICINE AND DENTISTRY OF NEW JERSEY, published 2011)
